Patent US20150361176A1 (GlaxoSmithKline, published 2015)
Several values for one entry are separate records, joined by “and”; a condition that tells them apart may be missing. Equal values may be shown once.

T1: recombinant mouse TGF-β RII/Fc chimera protein (mouse; human, UniProt Q62312-1 24-184)
T1 construct: Residue limits are printed only for the human receptor; also called mouse TGFbRII-Fc; mRII-Fc; not shown: Fc region; the assays speak of antigen fused to the human Fc
T1 sequence (looked up): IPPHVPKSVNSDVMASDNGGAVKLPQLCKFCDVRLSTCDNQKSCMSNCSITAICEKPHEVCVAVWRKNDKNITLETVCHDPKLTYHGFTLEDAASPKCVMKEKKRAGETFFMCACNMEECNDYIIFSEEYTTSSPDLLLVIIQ

T2: mouse TGF-βRII on MC3T3-E1 cells (mouse osteoblasts) (mouse, UniProt Q62312 24-567)
T2 sequence (looked up): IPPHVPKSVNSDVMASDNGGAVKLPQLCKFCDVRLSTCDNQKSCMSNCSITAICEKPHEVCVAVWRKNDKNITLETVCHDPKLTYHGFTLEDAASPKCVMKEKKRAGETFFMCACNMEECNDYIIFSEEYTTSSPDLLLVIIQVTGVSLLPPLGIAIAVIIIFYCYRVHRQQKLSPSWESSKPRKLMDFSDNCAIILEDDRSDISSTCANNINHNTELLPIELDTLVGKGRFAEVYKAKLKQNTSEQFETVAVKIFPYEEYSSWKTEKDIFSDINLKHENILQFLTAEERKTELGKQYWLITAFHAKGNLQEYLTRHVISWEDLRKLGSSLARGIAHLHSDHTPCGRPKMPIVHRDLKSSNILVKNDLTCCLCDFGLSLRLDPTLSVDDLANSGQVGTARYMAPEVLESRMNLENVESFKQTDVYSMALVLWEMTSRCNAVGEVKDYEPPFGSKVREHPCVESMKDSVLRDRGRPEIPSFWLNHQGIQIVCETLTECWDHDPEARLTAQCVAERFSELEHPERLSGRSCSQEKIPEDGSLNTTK


Legend:
[1] = biological target: T3, recombinant human TGF-β RII/Fc chimera protein (human, UniProt P37173 24-159); test: SPR Biacore, human TGFbRII-FC, 1:1 model (poor fit, ranking only)
T3 construct: range 24-159; Made in HEK-F cells; Biotinylated where it was put on SA chips, otherwise captured by anti-human IgG; also called human TGFbRII/Fc; hRII-Fc; not shown: Fc region of human IgG1

[2] = biological target: T3, recombinant human TGF-β RII/Fc chimera …; test: SPR Biacore T100, human TGFbRII-FC, 1:1 model
Protocol: Triplet or doped libraries in separate CDR1, CDR2 and CDR3 pools were subjected to rounds of phage selection as described above against either biotinylated human TGF-β RII/Fc antigen over 4 rounds in concentrations of 10 nM, 1 nM, 100 pM and 20 pM respectively, or two rounds of selection using 20 pM followed by 2 pM antigen. Inserts from phage selections were cloned into the pDOM10 expression vector and supernatants with off rates improved over parent were selected for further study. Domain antibodies were expressed and purified their affinity and bioactivity against human TGF-β RII/Fc antigen tested on the BIACORE™ T100 and in the Cell sensor assay described above (data not shown).
BIACORE™ analysis was carried out using a capture surface on a CM4 chip. Anti-human IgG was used as the capturing agent and coupled to a CM4 biosensor chip by primary amine coupling. The Antigen molecule fused to the human Fc was captured on this immobilised surface to a level from 250 to 300 resonance units and defined concentrations of Domain antibodies diluted in running buffer were passed over this captured surface. An injection of buffer over the captured antigen surface was used for double referencing. […] All runs were carried out at 25° C. using HBS-EP buffer as running buffer. Data were generated using the BIACORE™ T100 and fitted to the 1:1 binding model inherent to the software.

[3] = biological target: T3, recombinant human TGF-β RII/Fc chimera …; test: SPR Biacore
cynomolgus TGF-β RII/Fc = biological target: T4, cynomolgus TGF-β RII/Fc (cynomolgus); test: SPR Biacore
T4 construct: extracellular domain; also called Cyno TGFBRII; Cyno TGFbRII

[4] = biological target: T1, recombinant mouse TGF-β RII/Fc chimera …; test: SPR Biacore
[5] = biological target: T2, mouse TGF-βRII on MC3T3-E1 cells (mouse …); test: cell-based or functional assay
[6] = biological target: T5, human TGF-βRII on cells (SBE-bla HEK 293T cells; A549 cells) (human, UniProt P37173 23-567); test: cell-based or functional assay
[7] = biological target: T5, human TGF-βRII on cells (SBE-bla HEK …); test: cell-based or functional assay; remark: listed apart in the source
[8] = biological target: T3, recombinant human TGF-β RII/Fc chimera …; test: SPR Biacore, purified dAb; antigen taken as human TGF-β RII/Fc
[9] = biological target: T3, recombinant human TGF-β RII/Fc chimera …; test: SPR Biacore, against parent DOM23h-855
[10] = biological target: T3, recombinant human TGF-β RII/Fc chimera …; test: SPR Biacore, against parent DOM23h-843
[11] = biological target: T3, recombinant human TGF-β RII/Fc chimera …; test: SPR Biacore, against parent DOM23h-439

T5 sequence (P37173 23-567): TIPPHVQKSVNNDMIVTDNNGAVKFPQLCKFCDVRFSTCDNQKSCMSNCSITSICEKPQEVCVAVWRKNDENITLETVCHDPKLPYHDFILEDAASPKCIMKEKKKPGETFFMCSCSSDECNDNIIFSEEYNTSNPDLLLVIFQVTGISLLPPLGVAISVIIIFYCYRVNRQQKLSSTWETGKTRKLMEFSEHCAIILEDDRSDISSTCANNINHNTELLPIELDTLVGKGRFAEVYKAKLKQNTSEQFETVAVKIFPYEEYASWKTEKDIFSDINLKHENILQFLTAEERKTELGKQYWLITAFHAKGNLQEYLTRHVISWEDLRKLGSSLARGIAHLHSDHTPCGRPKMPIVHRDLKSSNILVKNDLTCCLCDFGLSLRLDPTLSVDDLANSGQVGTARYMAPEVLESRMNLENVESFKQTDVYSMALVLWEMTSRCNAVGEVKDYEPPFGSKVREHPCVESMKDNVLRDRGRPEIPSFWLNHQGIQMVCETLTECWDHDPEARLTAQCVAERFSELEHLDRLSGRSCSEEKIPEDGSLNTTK
T3 sequence (P37173 24-159 limits assumed, stated change not applied): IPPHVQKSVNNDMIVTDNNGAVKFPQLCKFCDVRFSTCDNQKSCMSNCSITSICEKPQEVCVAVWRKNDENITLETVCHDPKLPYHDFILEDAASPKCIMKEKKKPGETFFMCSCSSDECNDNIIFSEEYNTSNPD

Binder	Kd [3]	Kd (cynomolgus TGF-β RII/Fc)	Kd [4]	Mouse 3T3 Luciferase assay IC50 [5]	Human Cell sensor IC50 [6]	Mean IC50 (nM), SBE-bla HEK 293T Cell Sensor assay (h2) [7]	Kd [8]	koff [8]	kon [8]	other results
DOM23h-271-7 (VHH, human VH dAb; also called 271-7a; 271-7b) VHH: EVQLLESGGGLVQPGGSLRLSCAASGFTFTEYRMWWVRQAPGKGLEWVSAIEPIGNRTYYADSVKGRFTISRDNSKNTLYLQMNSLRAEDTAVYYCAKQIPGRKWTANSRFDYWGQGTLVTVSS										Kd [1]: 9.49 nM; koff [1]: 0.051 s⁻¹; kon [1]: 5.37e+06 M⁻¹ s⁻¹; Kd [2]: 13.8 nM and 18.4 nM; koff [2]: 0.0419 s⁻¹ and 0.0445 s⁻¹; kon [2]: 3.04e+06 M⁻¹ s⁻¹ and 2.42e+06 M⁻¹ s⁻¹
DOM23h-855-21 (VHH, human VH dAb, error-prone matured; expressed from pDOM13, tag not described) VHH: EVQLLESGGGLVQPGGSLRLSCAASGFTFENTSMGWVRQAPGKGLEWVSRIDPKGSHTYYTDSVKGRFTISRDNSKNTLYLQMNSLRAEDTAVYYCAKQRELGKSYFDYWGQGTLVTVSS						18600 nM	18 nM	0.0336 s⁻¹	1.86e+06 M⁻¹ s⁻¹	KD Fold improvement [9]: 52.3 fold; ka Fold improvement [9]: 5.6 fold; kd Fold improvement [9]: 9.4 fold
DOM23h-439-20 (VHH, human VH dAb, error-prone matured; expressed from pDOM13, tag not described) VHH: EVQLLESGGGLVQPGGSLRLSCAASGFTFGTEQMWWVRQAPGKGLEFVSRIDSPGGRTYYADSVKGRFTISRDNSKNTLYLQMNSLRAEDTAVYYCAKRHAAGVSGTYFDYWGQGTLVTVSS						48 nM	0.799 nM	0.00354 s⁻¹	4.43e+06 M⁻¹ s⁻¹	KD Fold improvement [11]: 30.3 fold; ka Fold improvement [11]: 2.1 fold; kd Fold improvement [11]: 14.2 fold

The next lines start with results.

Kd [3]	Kd (cynomolgus TGF-β RII/Fc)	Kd [4]	Mouse 3T3 Luciferase assay IC50 [5]	Human Cell sensor IC50 [6]	Mean IC50 (nM), SBE-bla HEK 293T Cell Sensor assay (h2) [7]	Kd [8]	koff [8]	kon [8]	Binder	other results
0.0149 nM	0.024 nM	1.78 nM	11100 nM	1.17 nM					DOM23h-271-39 (VHH, human VH dAb; also called DOM23h-271-22 plus D61R K64D; RD) VHH: EVQLLESGGGLVQPGGSLRLSCAASGFTFTEYRMWWVRQAPGKGLEWVSAIEPIGNRTYYARSVDGRFTISRDNSKNTLYLQMNSLRAEDTAVYYCAKQMPGQKWMAKSRFDYWGQGTLVTVSS	
0.00999 nM	0.0112 nM	0.548 nM	1200 nM	0.53 nM					DOM23h-271-40 (VHH, human VH dAb; also called DOM23h-271-22 plus D61R K64F; RF) VHH: EVQLLESGGGLVQPGGSLRLSCAASGFTFTEYRMWWVRQAPGKGLEWVSAIEPIGNRTYYARSVFGRFTISRDNSKNTLYLQMNSLRAEDTAVYYCAKQMPGQKWMAKSRFDYWGQGTLVTVSS	
					540 nM	4.13 nM	0.0211 s⁻¹	5.11e+06 M⁻¹ s⁻¹	DOM23h-843-13 (VHH, human VH dAb, error-prone matured; expressed from pDOM13, tag not described) VHH: EVQLLESGGGLVQPGGSLRLSCAASGFTFDQDRMWWVRQAPGKGLEWVSAIESGGHRTYYADSVKGRFTISRDNSKNTLYLQMNSLRAEDTAVYYCANQNKSGRSGFDYWGQGTLVTVSS	KD Fold improvement [10]: 91.7 fold; ka Fold improvement [10]: 5.6 fold; kd Fold improvement [10]: 16.2 fold
